In article PMC7081834:

Target: Myc-PTEN wild type (human) (UniProt P60484)
Assay: native gel or EMSA

- stoichiometry N: 2
Substance: Myc-PTEN wild type, P60484 1-403 (natural protein; other documents disagree on this pair)
